The values that follow come from article PMC5653362, “Formation of the chaperonin complex studied by 2D NMR spectroscopy” (PLoS ONE, 2017).

Sequences and labels used below:
B1: single-ring mutant (SR1) of GroEL (R452E, E461A, S463A and V464A) (natural protein, E. coli, UniProt P0A6F5 1-548, looked up)
chain: MAAKDVKFGNDARVKMLRGVNVLADAVKVTLGPKGRNVVLDKSFGAPTITKDGVSVAREIELEDKFENMGAQMVKEVASKANDAAGDGTTTATVLAQAIITEGLKAVAAGMNPMDLKRGIDKAVTAAVEELKALSVPCSDSKAIAQVGTISANSDETVGKLIAEAMDKVGKEGVITVEDGTGLQDELDVVEGMQFDRGYLSPYFINKPETGAVELESPFILLADKKISNIREMLPVLEAVAKAGKPLLIIAEDVEGEALATLVVNTMRGIVKVAAVKAPGFGDRRKAMLQDIATLTGGTVISEEIGMELEKATLEDLGQAKRVVINKDTTTIIDGVGEEAAIQGRVAQIRQQIEEATSDYDREKLQERVAKLAGGVAVIKVGAATEVEMKEKKARVEDALHATRAAVEEGVVAGGGVALIRVASKLADLRGQNEDQNVGIKVALRAMEAPLEQIVLNCGEAPAAVANTVKGGDGNYGYNAATEEYGNMIDMGILDPTKVTRSALQYAASVAGLMITTECMVTDLPKNDAADLGAAGGMGGMGGMGGMM
notes: GroEL chaperonin of Escherichia coli with four mutations at the contact sites between the two rings, forming a single heptameric ring; Non-labeled; heptameric single ring; concentrations are of the heptamer; The PDB entries hold the wild-type double-ring parent; also called L (ligand); heptameric SR1; source: expression plasmid constructed from pEL-WT; expressed and purified as described …
B2: Wild-type E. coli GroES, 15N-labeled form (native heptamer) (natural protein)
chain: MNIRPLHDRVIVKRKEVETKSAGGIVLTGSAAAKSTRGEVLAVGNGRILENGEVKPLDVKVGDIVIFNDGYGVKSEKIDNEEVLIMSESDILAIVEA
modifications: uniformly 15N-labeled
notes: GroES co-chaperonin of Escherichia coli, wild type; concentrations are of the heptamer; also called 15N-labeled GroES; P (protein); source: E. coli BL21(DE3), expression plasmid pETESwild, purified as described previously

What all share (conditions): both partners purified
Test [1] has as its target B2. Description: NMR titration; van't Hoff plot of the Kb values from the NMR titrations at 20, 25 and 30°C; 3.0 mM ADP, 100 mM KCl, 10 mM MgCl2, pH 7.5.
The target of test [2] is B1. The test is described as follows: NMR titration; 1H-15N HSQC of 21.4 uM 15N-labeled GroES with 0-42 uM SR1 (separate samples); 25°C; 3 mM ATP, 20 mM Tris-HCl, 100 mM KCl, 10 mM MgCl2, pH 7.5, 10% D2O; fit to single-step 1:1 binding (Eq 6).
The target in test [3] is B1. Description: NMR titration; 1H-15N HSQC of 21.4 uM 15N-labeled GroES with 0-42 uM SR1 (separate samples); 20°C; 3.0 mM ADP, 20 mM Tris-HCl, 100 mM KCl, 10 mM MgCl2, pH 7.5, 10% D2O; fit to single-step 1:1 binding (Eq 6).
The target of test [4] is B1. The test is described as follows: NMR titration; 1H-15N HSQC of 21.4 uM 15N-labeled GroES with 0-42 uM SR1 (separate samples); 25°C; 3.0 mM ADP, 20 mM Tris-HCl, 100 mM KCl, 10 mM MgCl2, pH 7.5, 10% D2O; fit to single-step 1:1 binding (Eq 6).
Test [5] deals with B1. Description: NMR titration; 1H-15N HSQC of 21.4 uM 15N-labeled GroES with 0-42 uM SR1 (separate samples); 30°C; 3.0 mM ADP, 20 mM Tris-HCl, 100 mM KCl, 10 mM MgCl2, pH 7.5, 10% D2O; fit to single-step 1:1 binding (Eq 6).

In turn, B1 yielded a dH in test [1] of 8.39 ± 1.15 kcal/mol.

With B2, the Ka in test [2] was found to be 2.35e+06 M⁻¹; in test [3], 141000 M⁻¹; in test [4], 189000 M⁻¹; in test [5], 223000 M⁻¹.
